The source of these data is PMC10611974.

In the test the target is APOBEC3B (A3B) C-terminal domain (ctd)-Cas9n-Ugi (human | S. pyogenes | not stated).

B1: Epstein-Barr virus ribonucleotide reductase large subunit, BORF2 (natural protein)
chain: MATTSHVEHELLSKLIDELKVKANSDPEADVLAGRLLHRLKAESVTHTVAEYLEVFSDKFYDEEFFQMHRDELETRVSAFAQSPAYERIVSSGYLSALRYYDTYLYVGRSGKQESVQHFYMRLAGFCASTTCLYAGLRAALQRARPEIESDMEVFDYYFEHLTSQTVCCSTPFMRFAGVENSTLASCILTTPDLSSEWDVTQALYRHLGRYLFQRAGVGVGVTGAGQDGKHISLLMRMINSHVEYHNYGCKRPVSVAAYMEPWHSQIFKFLETKLPENHERCPGIFTGLFVPELFFKLFRDTPWSDWYLFDPKDAGDLERLYGEEFEREYYRLVTAGKFCGRVSIKSLMFSIVNCAVKAGSPFILLKEACNAHFWRDLQGEAMNAANLCAEVLQPSRKSVATCNLANICLPRCLVNAPLAVRAQRADTQGDELLLALPRLSVTLPGEGAVGDGFSLARLRDATQCATFVVACSILQGSPTYDSRDMASMGLGVQGLADVFADLGWQYTDPPSRSLNKEIFEHMYFTALCTSSLIGLHTRKIFPGFKQSKYAGGWFHWHDWAGTDLSIPREIWSRLSERIVRDGLFNSQFIALMPTSGCAQVTGCSDAFYPFYANASTKVTNKEEALRPNRSFWRHVRLDDREALNLVGGRVSCLPEALRQRYLRFQTAFDYNQEDLIQMSRDRAPFVDQSQSHSLFLREEDAARASTLANLLVRSYELGLKTIMYYCRIEKAADLGVMECKASAALSVPREEQNERSPAEQMPPRPMEPAQVAGPVDIMSKGPGEGPGGWCVPGGLEVCYKYRQLFSEDDLLETDGFTERACESCQ
In the case of B1, the inhibition of A3Bctd CBE editing of the chromosomally integrated TC reporter (eGFP) in 293T cells, flow cytometry, 72 h post-transfection was found to be 4.9 fold.
